Target: complex I-containing supercomplex (human (endogenous in fibroblasts and HEK293)) (UniProt P56181)
Assay: complexome profiling (blue native electrophoresis with mass spectrometry); mitochondria-enriched membranes of control fibroblast and control HEK293 cells, solubilised with detergent (digitonin for supercomplexes), 3% to 18% acrylamide blue native gel, gel bands or slices read by quantitative mass spectrometry; co-migration

Sequence of UniProt P56181 (P56181 whole entry, looked up, one chain of several): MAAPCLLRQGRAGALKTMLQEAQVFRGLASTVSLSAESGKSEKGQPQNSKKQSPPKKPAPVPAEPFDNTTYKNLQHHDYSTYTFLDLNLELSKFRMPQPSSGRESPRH

B1: DNAJC30 (natural protein)
chain: SQGDCSYSRTALYDLLGVPSTATQAQIKAAYYRQCFLYHPDRNSGSAEAAERFTRISQAYVVLGSATLRRKYDRGLLSDEDLRGPGVRPSRTPAPDPGSPRTPPPTSRTHDGSRASPGANRTMFNFDAFYQAHYGEQLERERRLRARREALRKRQEYRSMKGLRWEDTRDTAAIFLIFSIFIIIGFYI
With B1 the ratio DNAJC30/complex I in the supercomplex (DNAJC30/complex I) was 0.005.

Source: PMC7954600
